Columns and labels:
[1] = biological target: Mu50 ArdA (ArdA protein from Staphylococcus aureus Mu50, Orf SAV0405) (Staphylococcus aureus Mu50); experiment: SEC; Biosep-SEC-S3000 column; 20 mM Tris-HCl, 20 mM MES, 200 mM NaCl, 10 mM MgCl2, 0.1 mM EDTA, 7 mM 2-mercaptoethanol, pH 6.5; 25 °C; apparent molecular mass against injected monomer concentration, fitted to a monomer-dimer equilibrium; apparent constants; dimer to monomers
[2] = biological target: Bfr ArdA (ArdA protein from Bacteroides fragilis NCTC 9343, Orf BF1222) (Bacteroides fragilis NCTC 9343); experiment: as above
[3] = biological target: Orf18 ArdA protein expressed by the conjugative transposon Tn916 (conjugative transposon Tn916); experiment: as above
[4] = biological target: Ocr (Escherichia phage T7) (UniProt P03775); conditions: cited from earlier work

Substance: Mu50 ArdA (ArdA protein from Staphylococcus aureus Mu50, Orf SAV0405) (natural protein)
- Kd [1]: 3180 nM

Substance: Bfr ArdA (ArdA protein from Bacteroides fragilis NCTC 9343, Orf BF1222) (natural protein)
- Kd [2]: 360 nM

Substance: Orf18 ArdA protein expressed by the conjugative transposon Tn916 (natural protein)
- Kd [3]: 2200 nM

Substance: EcoKI MTase (from UniProt P08957)
- Kd [4]: 0.05 nM

Source: publication PMC3969726
